Source: patent US5527555A, “Brazzein sweetener” (Wisconsin Alumni Research Foundation, priority 1994, dated 1996)

How the values were obtained:
[1] = Thermostability assay (incubation at 98° C., sweetness then tasted); assay type: physicochemical
Protocol: A thermostability assay was done (2 hours at 98° C.) at a concentration of 0.5 mg/ml Brazzein at the following different pH levels: 2 (Glycine-HCL buffer); 4 (Acetate buffer); 6 (Phosphate buffer); and 8 (Tris-HCL buffer). All of the buffers were in concentration of 50 mM. After the incubations, the samples were cooled down to room temperature and the sweetness of the samples was tasted with a comparison to the original protein solution.

[2] = sweetness by tasting, compared with sucrose solution; assay type: in vivo

Substance: Brazzein: sweet protein isolated from Pentadiplandra brazzeana Baillon, about 6,473 Daltons, amino acid sequence SEQ ID NO:4 (EDKCKKVYENYPVSKCQLANQCNYDCKLDKHARSGECFYDEKRNLQCICDYCEY)
- thermostability ([1]; 2 hours at 98° C., 0.5 mg/ml, pH 2, 4, 6 and 8 (50 mM buffers), sweetness tasted against original protein solution): excellent thermostability
- sweetness after heat incubation ([1]; two hours of incubation at 98° C.): still tasted very sweet
- sweetness relative to sucrose ([2]; 2% solution compared with a 2% sucrose solution): about 2,000 times
- temporal sweetness response ([2]; taste, duration of sweetness): relatively long lasting sweetness response
